Measured values taken from patent US20260207704A1, “STAPLED PEPTIDES AND METHODS THEREOF” (priority 2022, published 2026).
*1 amine or outer side, *2 acyl side, *3 side chain or, on linkers, in order; H or OH if unused. Bridges are numbered along the chain shown (N, C = ends). Primed or numbered codes have the meaning given here. [ ]: non-standard residue; d: D form. PyrS2″ = (S)-3-amino-1-((pent-4-en-1-yloxy)carbonyl)pyrrolidine-3-carboxylic acid (olefin stapling residue), C=CCCCOC(=O)N1CC[C@@](N[*:1])(C(=O)[*:2])C1; PyrS2 = (S)-3-amino-1-((pent-4-en-1-yloxy)carbonyl)pyrrolidine-3-carboxylic acid, olefin staple residue, C=CCCCOC(=O)N1CC[C@@](N[*:1])(C(=O)[*:2])C1; PyrS2(5) = (S)-3-amino-1-((pent-4-en-1-yloxy)carbonyl)pyrrolidine-3-carboxylic acid, C=CCCCOC(=O)N1CC[C@@](N[*:1])(C(=O)[*:2])C1; B5″ = 2-amino-2-(pent-4-en-1-yl)hept-6-enoic acid (bis-olefin stapling residue), C=CCCCC(CCCC=C)(N[*:1])C(=O)[*:2]; 2F3MeF″ = aromatic residue, Cc1cccc(C[C@H](N[*:1])C(=O)[*:2])c1F; Phe(3-COOH) = N[C@@H](Cc1cccc(C(=O)O)c1)C(=O)O; 2F3MeF = Cc1cccc(C[C@H](N[*:1])C(=O)[*:2])c1F; Bta = N[C@@H](Cc1csc2ccccc12)C(=O)O; Lys(iPr) = CC(C)NCCCC[C@H](N)C(=O)O; αAllylPro = C=CC[C@@]1(C(=O)O)CCCN1; BztA = aromatic amino acid residue; tBuAla = CC(C)(C)C[C@H](N)C(=O)O; 3Thi = N[C@@H](Cc1ccsc1)C(=O)O; Cha = N[C@@H](CC1CCCCC1)C(=O)O; hSer = N[C@@H](CCO)C(=O)O; BztA″ = aromatic residue; Nle = CCCC[C@H](N)C(=O)O; GlnR = not defined here; PL3 = not defined here; B5 = not defined here

Tests used:
COLO320DM cells = experiment: COLO320DM proliferation assay; type: cell-based, human; details: read-out: COLO320DM Proliferation Abs IC50
Procedure: Various technologies can be utilized to assess technologies of the present disclosure. For example, in some embodiments, solubility, LogD, interactions with targets, etc. of various agents such as stapled peptides were assessed using technologies described in WO 2022/261257 (e.g., those in its Examples). In some embodiments, solubility, shake flask LogD, and binding to beta-catenin were assessed. In some embodiments, an assay for assessing interactions, e.g., with beta-catenin, was fluorescence polarization as described in WO 2022/261257. In some embodiments, an assay was Nano-BRET target engagement assay that assessed beta-catenin/TCF4 engagement as described in WO 2022/261257. In some embodiments, an assay was a reporter assay as reported in Example 4 of WO 2022/261257. In some embodiments, an assay was a COLO320DM proliferation assay as reported in Example 4 of WO 2022/261257.
Among other things, provided technologies can inhibit proliferation of various cells including various cancer cells. In some embodiments, provided technologies modulate WNT specific transcription. In some embodiments, provided technologies induce cell cycle arrest. In some embodiments, provided technologies induce G1 cell cycle arrest. In some embodiments, provided technologies increased proportion of cells in G1 phase of cell cycle. As confirmed in FIG. 3, provided technologies can inhibit proliferation of COLO320DM, which is a colorectal cell line comprising various mutations such as APC, TP53, etc., modulate WNT specific transcription such as of AXIN2 and CXCL12, and induce G1 cell cycle arrest. In some embodiments, it was confirmed that provided technologies can reduce proportion of cells in S phase of cell cycle.

beta-catenin (human) [1] = experiment: fluorescence polarization; bin >200 nM
beta-catenin (human), sequence (B6V8E6 146-665 limits assumed): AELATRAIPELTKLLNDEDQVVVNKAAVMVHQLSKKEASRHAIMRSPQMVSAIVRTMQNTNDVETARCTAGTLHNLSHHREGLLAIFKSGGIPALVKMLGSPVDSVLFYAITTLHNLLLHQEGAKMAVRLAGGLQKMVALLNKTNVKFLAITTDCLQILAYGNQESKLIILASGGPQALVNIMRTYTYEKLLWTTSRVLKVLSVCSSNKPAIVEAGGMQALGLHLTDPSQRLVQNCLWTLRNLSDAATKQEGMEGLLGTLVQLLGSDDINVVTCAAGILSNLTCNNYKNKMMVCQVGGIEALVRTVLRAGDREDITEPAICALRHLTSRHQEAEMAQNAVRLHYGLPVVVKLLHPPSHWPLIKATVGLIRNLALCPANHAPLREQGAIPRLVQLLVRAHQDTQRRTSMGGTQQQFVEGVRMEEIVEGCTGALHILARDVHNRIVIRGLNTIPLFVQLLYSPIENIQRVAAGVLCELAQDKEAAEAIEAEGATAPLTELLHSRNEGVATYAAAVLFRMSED

beta-catenin (human) [2] = experiment: cell-based or functional assay

| IC50 (beta-catenin (human) [1]) | Molecule | IC50 (COLO320DM cells) | further results |
| --- | --- | --- | --- |
| – | CC(=O)N1CCC[C@]12CC=CCCCC1(CCCC=CCCCOC(=O)N3CC[C@@]4(C3)NC(=O)[C@H](CCCCNC(=O)CC[C@@H](C(=O)N[C@@H](C)C(N)=O)NC(=O)[C@H](Cc3csc5ccccc35)NC(=O)[C@H](Cc3ccsc3)NC4=O)NC(=O)[C@H](Cc3ccccc3)NC(=O)[C@H](C)NC(=O)C(C)(C)NC(=O)[C@H](Cc3cccc(C(=O)O)c3)NC(=O)[C@H](CC(=O)O)NC1=O)NC(=O)[C@H](C)NC(=O)[C@H](CC(=O)O)NC2=O (relative stereo) [I-304, Ac-PL3-Asp-Ala-B5-Asp-3COOHF-Aib-Ala-Phe-Lys*3-PyrS2-3Thi-BztA-GlnR*3-Ala-NH2] | ≤ 10 µM | – |
| – | CC(=O)N1CCC[C@]12CC=CCCCC1(CCCC=CCCCOC(=O)N3CC[C@@]4(C3)NC(=O)[C@H](CCCCNC(=O)CC[C@@H](C(=O)N[C@@H](C)C(N)=O)NC(=O)[C@H](Cc3csc5ccccc35)NC(=O)[C@H](Cc3ccsc3)NC4=O)NC(=O)[C@H](Cc3ccccc3)NC(=O)[C@H](C)NC(=O)C(C)(C)NC(=O)[C@H](Cc3cccc(C(=O)O)c3)NC(=O)[C@H](CC(=O)O)NC1=O)NC(=O)[C@H](CCCN1CCOCC1)NC(=O)[C@H](CC(=O)O)NC2=O (relative stereo) [I-313, Ac-PL3-Asp-MorphNva-B5-Asp-3COOHF-Aib-Ala-Phe-Lys*3-PyrS2-3Thi-BztA-GlnR*3-Ala-NH2] | > 20 µM | – |
| – | CC(=O)N1CCC[C@]12CC=CCCCC1(CCCC=CCCCOC(=O)N3CC[C@@]4(C3)NC(=O)[C@H](CCCCNC(=O)CC[C@@H](C(=O)N[C@@H](C)C(N)=O)NC(=O)[C@H](Cc3csc5ccccc35)NC(=O)[C@H](Cc3ccsc3)NC4=O)NC(=O)[C@H](Cc3ccccc3)NC(=O)[C@H](C)NC(=O)C(C)(C)NC(=O)[C@H](Cc3cccc(C(=O)O)c3)NC(=O)[C@H](CC(=O)O)NC1=O)NC(=O)[C@H](C1CCCCC1)NC(=O)[C@H](CC(=O)O)NC2=O (single isomer, unassigned) [I-253, Ac-PL3-Asp-Chg-B5-Asp-3COOHF-Aib-Ala-Phe-Lys*3-PyrS2-3Thi-BztA-GlnR*3-Ala-NH2] | ≤ 10 µM | – |
| – | CC(=O)N1CCC[C@]12CC=CCCCC1(CCCC=CCCCOC(=O)N3CC[C@@]4(C3)NC(=O)[C@H](CCCCNC(=O)CC[C@@H](C(=O)N[C@@H](C)C(N)=O)NC(=O)[C@H](Cc3csc5ccccc35)NC(=O)[C@H](Cc3ccccc3C)NC4=O)NC(=O)[C@H](Cc3ccccc3)NC(=O)[C@H](C)NC(=O)C(C)(C)NC(=O)[C@H](Cc3cccc(C(=O)O)c3)NC(=O)[C@H](CC(=O)O)NC1=O)NC(=O)[C@H](CC(C)(C)C)NC(=O)[C@H](CC(=O)O)NC2=O (relative stereo) [I-294, Ac-PL3-Asp-Npg-B5-Asp-3COOHF-Aib-Ala-Phe-Lys*3-PyrS2-2MeF-BztA-GlnR*3-Ala-NH2] | ≤ 10 µM | – |
| – | CCCC[C@@H]1NC(=O)[C@H](CC(=O)O)NC(=O)[C@]2(CC=CCCCC3(CCCC=CCCCOC(=O)N4CC[C@@]5(C4)NC(=O)[C@H](CCCCNC(=O)CC[C@@H](C(=O)N[C@@H](C)C(N)=O)NC(=O)[C@H](Cc4csc6ccccc46)NC(=O)[C@H](Cc4ccsc4)NC5=O)NC(=O)[C@H](Cc4ccccc4)NC(=O)[C@H](C)NC(=O)C(C)(C)NC(=O)[C@H](Cc4cccc(C(=O)O)c4)NC(=O)[C@H](CC(=O)O)NC3=O)NC1=O)CCCN2C(C)=O (relative stereo) [I-245, Ac-PL3-Asp-nLeu-B5-Asp-3COOHF-Aib-Ala-Phe-Lys*3-PyrS2-3Thi-BztA-GlnR*3-Ala-NH2] | ≤ 10 µM | – |
| – | CC(=O)N1CCC[C@]12CC=CCCCC1(CCCC=CCCCOC(=O)N3CC[C@@]4(C3)NC(=O)[C@H](CCCCNC(=O)CC[C@@H](C(=O)N[C@@H](C)C(N)=O)NC(=O)[C@H](Cc3csc5ccccc35)NC(=O)[C@H](Cc3ccsc3)NC4=O)NC(=O)[C@H](Cc3ccccc3)NC(=O)[C@H](C)NC(=O)[C@H](Cc3ccccc3)NC(=O)[C@H](Cc3cccc(C(=O)O)c3)NC(=O)[C@H](CC(=O)O)NC1=O)NC(=O)[C@H](CC(C)(C)C)NC(=O)[C@H](CC(=O)O)NC2=O (relative stereo) [I-386, Ac-PL3-Asp-Npg-B5-Asp-3COOHF-Phe-Ala-Phe-Lys*3-PyrS2-3Thi-BztA-GlnR*3-Ala-NH2] | > 20 µM | – |
| – | CC(=O)N1CCC[C@]12CC=CCCCC1(CCCC=CCCCOC(=O)N3CC[C@@]4(C3)NC(=O)[C@H](CCCCNC(=O)CC[C@@H](C(=O)N[C@@H](C)C(N)=O)NC(=O)[C@H](Cc3csc5ccccc35)NC(=O)[C@H](Cc3ccncc3)NC4=O)NC(=O)[C@H](Cc3ccccc3)NC(=O)[C@H](C)NC(=O)C(C)(C)NC(=O)[C@H](Cc3cccc(C(=O)O)c3)NC(=O)[C@H](CC(=O)O)NC1=O)NC(=O)[C@H](CC(C)(C)C)NC(=O)[C@H](CC(=O)O)NC2=O (relative stereo) [I-301, Ac-PL3-Asp-Npg-B5-Asp-3COOHF-Aib-Ala-Phe-Lys*3-PyrS2-4PyrA-BztA-GlnR*3-Ala-NH2] | > 20 µM | – |
| – | CC(=O)N1CCC[C@@]1(C)C(=O)N[C@@H](CC(=O)O)C(=O)N[C@H](C(=O)N[C@]1(C)CCCCCCCCOC(=O)N2CC[C@@]3(C2)NC(=O)[C@H](CCCCNC(=O)CC[C@@H](C(=O)N[C@@H](C)C(N)=O)NC(=O)[C@H](Cc2csc4ccccc24)NC(=O)[C@H](Cc2ccsc2)NC3=O)NC(=O)[C@H](Cc2ccccc2)NC(=O)[C@H](C)NC(=O)C(C)(C)NC(=O)[C@H](Cc2cccc(C(=O)O)c2)NC(=O)[C@H](CC(=O)O)NC1=O)C(C)C (relative stereo) [I-237, Ac-MePro-Asp-Val-R5-Asp-3COOHF-Aib-Ala-Phe-Lys*3-PyrS2-3Thi-BztA-GlnR*3-Ala-NH2] | > 20 µM | – |
| < 0.75 µM | Ac-[αAllylPro]D[tBuAla][B5]D[Phe(3-COOH)][GlnR]AFL[PyrS2][2F3MeF][Bta][GlnR](29N2spiroundecane)A-NH2 (staple 1-4, 4-11 (inferred); not fully specified; printed as Ac-PL3-Asp-Npg-B5-Asp-3COOHF-GlnR-Ala-Phe-Leu-PyrS2-2F3MeF-BztA-[29N2spiroundecane]GlnR-Ala-NH2; reading uncertain; also: staple C=C reduced to CH2-CH2) [I-134] | – | NanoBRET Abs IC50 (beta-catenin (human) [2]): > 10 µM |
| < 0.75 µM | Ac-[αAllylPro]N[Cha][B5″]DQ[Lys(iPr)]AF[GlnR][PyrS2″]F[Bta]K-NH2 (bridge 10-14; reading uncertain; also: PL3-B5 and PyrS2 links not placed, printed as Ac-PL3-Asn-Cha-B5-Asp-Gln-iPrLys-Ala-Phe-GlnR*3-PyrS2-Phe-BztA-Lys*3-NH2) [I-149] | – | NanoBRET Abs IC50 (beta-catenin (human) [2]): > 10 µM |
| < 0.75 µM | Ac-[αAllylPro]D[tBuAla][B5]D[Phe(3-COOH)][GlnR]AFL[PyrS2″][2F3MeF″][BztA″][GlnR](29N2spiroundecane)A-NH2 (reading uncertain; also: staple links not given here, printed as Ac-PL3-Asp-Npg-B5-Asp-3COOHF-GlnR-Ala-Phe-Leu-PyrS2-2F3MeF-BztA-[29N2spiroundecane]GlnR-Ala-NH2) [I-131] | – | NanoBRET Abs IC50 (beta-catenin (human) [2]): > 10 µM |
| < 0.75 µM | Ac-[PL3]D[tBuAla][B5][hSer][Phe(3-COOH)]SAFK[PyrS2(5)][3Thi][BztA][GlnR]A-NH2 (staple 1-4 (inferred); bridge 10-14; not fully specified (residue 10, bridges); printed as Ac-PL3-Asp-Npg-B5-Hse-3COOHF-Ser-Ala-Phe-Lys*3-PyrS2-3Thi-BztA-GlnR*3-Ala-NH2; reading uncertain; also: Lys10 and GlnR14 marked *3) [I-87] | – | – |
| < 0.75 µM | Ac-[αAllylPro]N[tBuAla][B5]D[Phe(3-COOH)][Nle]AFK[PyrS2″][2F3MeF″][BztA″][GlnR]LS-NH2 (bridge 10-14; not fully specified (bridges); printed as Ac-PL3-Asn-Npg-B5-Asp-3COOHF-nLeu-Ala-Phe-Lys*3-PyrS2-2F3MeF-BztA-GlnR*3-Leu-Ser-NH2; reading uncertain; also: Lys10 and GlnR14 marked *3) [I-143] | – | NanoBRET Abs IC50 (beta-catenin (human) [2]): > 10 µM |
| < 0.75 µM | Ac-[αAllylPro]N[tBuAla][B5]D[Phe(3-COOH)]AAFK[PyrS2(5)][2F3MeF″][BztA″][GlnR]LS-NH2 (bridge 10-14; not fully specified (bridges); printed as Ac-PL3-Asn-Npg-B5-Asp-3COOHF-Ala-Ala-Phe-Lys*3-PyrS2-2F3MeF-BztA-GlnR*3-Leu-Ser-NH2; reading uncertain; also: Lys10 and GlnR14 marked *3) [I-142] | – | NanoBRET Abs IC50 (bin >3.0 uM) (beta-catenin (human) [2]): < 10 µM |
